Results published in paper PMC5437283.

Key:
Details in all cases: remark: other sources report otherwise
[1] = target: T1, wildtype pneumolysin (PLYWT) (Streptococcus pneumoniae), P0C2J9; test: electron cryo-tomography with subtomogram averaging; pores: preformed cholesterol-containing liposomes incubated with PLY (1 mg/ml) at 37°C for 30-180 min; subtomogram average at 27 Å
T1 chain: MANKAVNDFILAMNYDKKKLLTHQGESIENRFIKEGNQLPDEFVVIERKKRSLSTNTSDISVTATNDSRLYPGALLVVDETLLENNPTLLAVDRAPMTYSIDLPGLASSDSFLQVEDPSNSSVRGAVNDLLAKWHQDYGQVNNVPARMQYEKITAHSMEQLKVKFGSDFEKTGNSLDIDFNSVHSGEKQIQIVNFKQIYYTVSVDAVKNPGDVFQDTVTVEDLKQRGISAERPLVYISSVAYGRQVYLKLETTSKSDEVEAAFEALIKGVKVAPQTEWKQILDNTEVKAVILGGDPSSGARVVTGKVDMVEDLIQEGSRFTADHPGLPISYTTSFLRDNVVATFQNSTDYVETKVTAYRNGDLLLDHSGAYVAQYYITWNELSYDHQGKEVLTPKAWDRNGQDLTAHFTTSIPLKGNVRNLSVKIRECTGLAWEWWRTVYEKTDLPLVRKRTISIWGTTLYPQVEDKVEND

[2] = target: T1, wildtype pneumolysin (PLYWT) …; test: cryo-EM structure; single-particle cryoEM of PLY pore complexes formed on DOPC/cholesterol liposomes (37°C, 30 min), solubilised with 0.56% Cymal-6 and exchanged into amphipol A8-35; 50 mM Tris-HCl pH 7.0, 150 mM NaCl, 5 mM β-mercaptoethanol; 42-fold symmetry, 4.5 Å
[3] = target: T1, wildtype pneumolysin (PLYWT) …; test: electron cryo-tomography with subtomogram averaging; prepores: preformed cholesterol-containing liposomes incubated with PLY (1 mg/ml) at room temperature for 30 min; subtomogram average at 22 Å

B1: wildtype pneumolysin (PLYWT), P0C2J9 1-471 (natural protein)
chain: T1 chain
Binder B1 has a stoichiometry N [1] of 34 subunits, a stoichiometry N [2] of 42 subunits and a stoichiometry N [3] of 34 subunits.
